Measured values from patent US20220185900A1 (Regeneron, published 2022).

T1: Macaca fascicularis (mf) RET.mmh (Macaca fascicularis)
T1 construct: also called monkey RET
T1 chain: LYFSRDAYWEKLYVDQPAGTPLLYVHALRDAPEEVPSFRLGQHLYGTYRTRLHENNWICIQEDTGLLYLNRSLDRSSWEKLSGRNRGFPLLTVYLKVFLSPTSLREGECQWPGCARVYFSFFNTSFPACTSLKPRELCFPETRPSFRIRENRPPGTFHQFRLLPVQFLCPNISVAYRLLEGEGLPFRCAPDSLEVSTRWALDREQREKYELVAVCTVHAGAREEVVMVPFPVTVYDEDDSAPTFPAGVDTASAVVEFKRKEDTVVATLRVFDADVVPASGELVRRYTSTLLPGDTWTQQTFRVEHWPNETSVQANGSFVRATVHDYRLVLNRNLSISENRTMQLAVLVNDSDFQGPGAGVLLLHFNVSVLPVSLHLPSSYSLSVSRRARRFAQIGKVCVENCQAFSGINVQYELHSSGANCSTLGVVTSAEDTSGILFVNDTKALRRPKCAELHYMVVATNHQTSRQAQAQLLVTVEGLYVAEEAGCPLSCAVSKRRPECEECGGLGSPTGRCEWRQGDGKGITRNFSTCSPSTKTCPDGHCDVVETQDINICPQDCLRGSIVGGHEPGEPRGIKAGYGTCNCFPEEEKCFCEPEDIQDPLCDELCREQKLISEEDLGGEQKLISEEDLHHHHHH

B1: H4H8071P (antibody, human IgG4, V domains shown)
VH: EVQLVESGGGLVQPGGSLRLSCAASGFTFTTYFMSWVRQAPGKGLEWVSGISGSGTSTFYVDSMKGRFTISRDNSKNTLYLQMNSLRVEDTAVYFCAKENTYGHFDFWGQGTLVTVSS
VL: DIQLTQSPSFLSASVGDRVTITCWASQDISSHLAWYQQKPGKAPKVLIYDASTLQSGVPSRISGSGSGTEFTLTISSLQPEDFAAYYCQQLDGYPYTFGQGTKLEIK
notes: human IgG4 Fc (H4H prefix)
B2: H4H8056P (antibody, human IgG4, V domains shown)
VH: QVQLVESGGGVVQPGRSLRLSCAASGFTFRNYGMHWVRQAPGKGLEWVAVKRYDGSDEYFVDSVKGRFTISRDNSKNTLFLQMNSLRVDDTAVYYCARETPITGTTLDYWGQGTLVTVSS
VL: DIQMTQSPSSLSASVGDRVTITCRTSQSITNYLNWYQQKPGKAPKLLIYAASRSQSGVPSRFSGSGSGTDFTLTISSLQPEDFATYYCQQSYSTPLTFGGGTKVEIK
notes: human IgG4 Fc (H4H prefix)
B3: H4H8058P (antibody, human IgG4, V domains shown)
VH: QVQLVESGGGVGQPGRSLRLSCVASGFTFRNYGMHWVRQAPGKGLDWVAIIGYDGSKEYNVDSVKGRFTISRDNSKNTLYLQMNSLGAEDTAIYYCARESPITGTTFDYWGQGTLVTVSS
VL: DIQMTQSPPSLSASVGDRVTITCRASQSIGNYLNWYQQKPGKAPKILIYAASRLQSGVPSRFSGSGSGTDFTLTISSLQPEDFATYYCQQSYSTPLTFGGGTKVEIK
notes: human IgG4 Fc (H4H prefix)
B4: H4H8060P (antibody, human IgG4, V domains shown)
VH: QVTLKESGPVLVKPTETLTLTCTVSGFSLSSARMGVSWIRQPPGKALEWLAHIFSTDEKSYSTSLKSRLSISKDTSLSQVVLIMTNMDPVDTATYYCARRTTMAPYYYYYGMDVWGHGTTVTVSS
VL: AIQMTQSPASLSASVGDRVTITCRASQGIRNDLGWYQQKPGKAPKLLISAASSLQSGVPSRFSGSGSGTDFTLTISSLQPEDFATYYCLQDYKYPWTFGQGTKVEIK
notes: human IgG4 Fc (H4H prefix)
B5: H4H8062P (antibody, human IgG4, V domains shown)
VH: EVQLVESGGGLVQPGGSLRLSCSVSGFIFKNYAMRWVRQAPGKGLEWVSGISGSGGITYYADSVRGRVTISRDNSKNTLDLQMTNLRAEDTAVYYCAKAEYSSSGAYFDYWGQGTLVTVSS
VL: DIQMTQSPSSLSASVGDRVTITCRASQSIHNYLNWYLQRPGKAPKLLVYAASSLQSGVPSRFSGRGSGTDFTLTISSLQPEDFATYYCQQSYSAPYSFGQGTKLEIK
notes: human IgG4 Fc (H4H prefix)
B6: H4H8076P (antibody, human IgG4, V domains shown)
VH: QVQLQQSGPGLVKPSQTLSLTCAISGDSVSSNSVAWNWIRQSPSRGLEWLGRTYYRSNWYNTYAVSVKSRITIDPDTSKNQFSLQLNSVTPEDTALYYCARGHRYSGSYFDYWGQGTLVTVSS
VL: DIQMTQSPSSLSASVGDRVTITCRASQNINSYFNWYQQKPGKAPKLLIYAASSLQSGVPSRFSGGGSGTDFTLTISSLQPEDFATYYCQQTYTIPWTFGQGTKVEIK
notes: human IgG4 Fc (H4H prefix)
B7: H4H8087P (antibody, human IgG4, V domains shown)
VH: QVQLVESGGGVVQPGRSLRLSCAASGFSFSSYGMHWVRQAPGKGLEWVAVMWYDGSNEYYADSVKGRFIISRDNSKSTLYLEMNSLRAEDTALYYCAREDWDEGYYYGMDVWGQGTTVTVSS
VL: DIQMTQSPSSLFASVGDRVTITCRASQDIRYDLGWYQQKPGKAPKRLIYASSILESGVPSRFSGSGSGTEYTLTISTLQSEDFAIYYCLQHNSFPWTFGQGTKVEIK
notes: human IgG4 Fc (H4H prefix)

Assays:
[1] = molecular target: T1, Macaca fascicularis (mf) RET.mmh; assay: SPR Biacore T200, mAb capture, 37 C
Experimental: (§1) Binding affinities and kinetic constants of human anti-RET antibodies were determined by surface plasmon resonance (Biacore T200) at […] (Tables 2-3). […] Binding equilibrium dissociation constants (KD) and dissociative half-lives (t_{1/2}) were calculated from the kinetic rate constants as: KD [M]=kd/kₐ; and t_{1/2}(min)=(ln2/(60*kd). Calculations were performed using BiacoreT200 evaluation software v1.0.

hRET.mmh [2] = molecular target: T2, hRET.mmh (human, UniProt P07949 29-635, biotinylated in the ELISA of Example 4 (biot-hRET.mmh); not in the SPR of Example 3); assay: SPR Biacore T200, mAb capture, 37 C
T2 construct: also called biot-hRET.mmh; soluble monomeric human RET
Experimental: as §1

hRET.mFc [3] = molecular target: T3, hRET.mFc (human); assay: SPR Biacore T200, mAb capture, 37 C
T3 construct: also called dimeric human RET
Experimental: as §1

hRET.mmh [4] = molecular target: T2, hRET.mmh; assay: competition sandwich ELISA: 1 nM biot-hRET.mmh + antibody, plate-coated GDNF/GFRα1 co-complex
Experimental: The ability of anti-RET antibodies to block the binding of human RET to pre-complexed plate bound GDNF:GFRα1 was assessed using a competition sandwich ELISA.
Antibody-RET mixtures were incubated for 1 hour at RT and then transferred to microtiter plates previously coated with the hGDNF/hGFRα1 co-complex. Binding was allowed to proceed for 1 hr at RT followed by extensive washing. […] Plates were read at 450 nm and data analysis used a sigmoidal dose-response model within Prism™ software.
The absorbance values of the wells containing the highest concentration for each antibody were used to determine the blocking percent at maximum concentration antibody tested.

[5] = molecular target: T1, Macaca fascicularis (mf) RET.mmh; assay: SPR Biacore T200, mAb capture, 25 C
Experimental: as §1

hRET.mmh [6] = molecular target: T2, hRET.mmh; assay: SPR Biacore T200, mAb capture, 25 C
Experimental: as §1

hRET.mFc [7] = molecular target: T3, hRET.mFc; assay: SPR Biacore T200, mAb capture, 25 C
Experimental: as §1

| Binder | Kd [1] | koff [1] | kon [1] | t½ [1] | Kd (hRET.mmh [2]) | koff (hRET.mmh [2]) | kon (hRET.mmh [2]) | t½ (hRET.mmh [2]) | Kd (hRET.mFc [3]) | koff (hRET.mFc [3]) | kon (hRET.mFc [3]) | t½ (hRET.mFc [3]) | % Max Blocking (hRET.mmh [4]) | Kd [5] | koff [5] | kon [5] | t½ [5] | Kd (hRET.mmh [6]) | koff (hRET.mmh [6]) | kon (hRET.mmh [6]) | other results |
| --- | --- | --- | --- | --- | --- | --- | --- | --- | --- | --- | --- | --- | --- | --- | --- | --- | --- | --- | --- | --- | --- |
| B1 | 7.04 nM | 0.00114 s⁻¹ | 161000 M⁻¹ s⁻¹ | 10 min | 3.79 nM | 0.000896 s⁻¹ | 236000 M⁻¹ s⁻¹ | 13 min | 1.04 nM | 0.000312 s⁻¹ | 300000 M⁻¹ s⁻¹ | 37 min | 72% | 2.32 nM | 0.000272 s⁻¹ | 117000 M⁻¹ s⁻¹ | 43 min | 1.41 nM | 0.000219 s⁻¹ | 156000 M⁻¹ s⁻¹ | IC50 (hRET.mmh [4]): 0.36 nM; t½ (hRET.mmh [6]): 53 min; Kd (hRET.mFc [7]): 0.89 nM; koff (hRET.mFc [7]): 0.000179 s⁻¹; kon (hRET.mFc [7]): 200000 M⁻¹ s⁻¹; t½ (hRET.mFc [7]): 65 min |
| B2 | 10.3 nM | 0.00313 s⁻¹ | 303000 M⁻¹ s⁻¹ | 4 min | 8.88 nM | 0.00289 s⁻¹ | 326000 M⁻¹ s⁻¹ | 4 min | 5.62 nM | 0.00128 s⁻¹ | 227000 M⁻¹ s⁻¹ | 9 min | 73% | 2.69 nM | 0.000583 s⁻¹ | 216000 M⁻¹ s⁻¹ | 20 min | 2.56 nM | 0.000539 s⁻¹ | 211000 M⁻¹ s⁻¹ | t½ (hRET.mmh [6]): 21 min; Kd (hRET.mFc [7]): 1.47 nM; koff (hRET.mFc [7]): 0.000272 s⁻¹; kon (hRET.mFc [7]): 185000 M⁻¹ s⁻¹; t½ (hRET.mFc [7]): 42 min |
| B3 | 4.16 nM | 0.00226 s⁻¹ | 543000 M⁻¹ s⁻¹ | 5 min | 4.18 nM | 0.00221 s⁻¹ | 528000 M⁻¹ s⁻¹ | 5 min | 2.18 nM | 0.00121 s⁻¹ | 552000 M⁻¹ s⁻¹ | 10 min | 93% | 2.35 nM | 0.00054 s⁻¹ | 230000 M⁻¹ s⁻¹ | 21 min | 2.09 nM | 0.000518 s⁻¹ | 248000 M⁻¹ s⁻¹ | IC50 (hRET.mmh [4]): 0.25 nM; t½ (hRET.mmh [6]): 22 min; Kd (hRET.mFc [7]): 1.1 nM; koff (hRET.mFc [7]): 0.000259 s⁻¹; kon (hRET.mFc [7]): 236000 M⁻¹ s⁻¹; t½ (hRET.mFc [7]): 45 min |
| B4 | 1.88 nM | 0.00209 s⁻¹ | 1.12e+06 M⁻¹ s⁻¹ | 6 min | 1.41 nM | 0.00157 s⁻¹ | 1.11e+06 M⁻¹ s⁻¹ | 7 min | 0.558 nM | 0.000592 s⁻¹ | 1.06e+06 M⁻¹ s⁻¹ | 19 min | 95% | 0.523 nM | 0.000393 s⁻¹ | 751000 M⁻¹ s⁻¹ | 29 min | 0.409 nM | 0.000311 s⁻¹ | 761000 M⁻¹ s⁻¹ | IC50 (hRET.mmh [4]): < 0.25 nM; t½ (hRET.mmh [6]): 37 min; Kd (hRET.mFc [7]): 0.179 nM; koff (hRET.mFc [7]): 0.000149 s⁻¹; kon (hRET.mFc [7]): 827000 M⁻¹ s⁻¹; t½ (hRET.mFc [7]): 78 min |
| B5 | 6.31 nM | 0.00428 s⁻¹ | 678000 M⁻¹ s⁻¹ | 3 min | 2.65 nM | 0.00181 s⁻¹ | 682000 M⁻¹ s⁻¹ | 6 min | 2.4 nM | 0.00088 s⁻¹ | 366000 M⁻¹ s⁻¹ | 13 min | 97% | 1.46 nM | 0.000733 s⁻¹ | 501000 M⁻¹ s⁻¹ | 16 min | 0.733 nM | 0.00037 s⁻¹ | 505000 M⁻¹ s⁻¹ | IC50 (hRET.mmh [4]): < 0.25 nM; t½ (hRET.mmh [6]): 31 min; Kd (hRET.mFc [7]): 0.49 nM; koff (hRET.mFc [7]): 0.00022 s⁻¹; kon (hRET.mFc [7]): 400000 M⁻¹ s⁻¹; t½ (hRET.mFc [7]): 53 min |
| B6 | 4.84 nM | 0.0014 s⁻¹ | 289000 M⁻¹ s⁻¹ | 8 min | 4.31 nM | 0.00136 s⁻¹ | 315000 M⁻¹ s⁻¹ | 9 min | 2.15 nM | 0.000675 s⁻¹ | 314000 M⁻¹ s⁻¹ | 17 min | 95% | 1.54 nM | 0.000327 s⁻¹ | 212000 M⁻¹ s⁻¹ | 35 min | 1.51 nM | 0.000338 s⁻¹ | 224000 M⁻¹ s⁻¹ | IC50 (hRET.mmh [4]): < 0.25 nM; t½ (hRET.mmh [6]): 34 min; Kd (hRET.mFc [7]): 0.686 nM; koff (hRET.mFc [7]): 0.000171 s⁻¹; kon (hRET.mFc [7]): 250000 M⁻¹ s⁻¹; t½ (hRET.mFc [7]): 68 min |
| B7 | 1.57 nM | 0.00131 s⁻¹ | 836000 M⁻¹ s⁻¹ | 9 min | 0.968 nM | 0.00123 s⁻¹ | 1.27e+06 M⁻¹ s⁻¹ | 9 min | 0.349 nM | 0.000441 s⁻¹ | 1.26e+06 M⁻¹ s⁻¹ | 26 min | 92% | 0.424 nM | 0.000272 s⁻¹ | 641000 M⁻¹ s⁻¹ | 42 min | 0.27 nM | 0.000242 s⁻¹ | 896000 M⁻¹ s⁻¹ | IC50 (hRET.mmh [4]): < 0.25 nM; t½ (hRET.mmh [6]): 48 min; Kd (hRET.mFc [7]): 0.087 nM; koff (hRET.mFc [7]): 0.000107 s⁻¹; kon (hRET.mFc [7]): 1.22e+06 M⁻¹ s⁻¹; t½ (hRET.mFc [7]): 108 min |
